Assay results reported in patent US20240084027A1 (BEIJING MABWORKS, published 2024).
Where two headings read alike, the source gives them in different places.

Columns and labels:
[1] = target: T1, human PD-L1-his protein (human, UniProt Q9NZQ7 19-238); assay: SPR on huPDL1 loaded on the chip; 3C2VH6VL5 injected first, anti-PD-L1 sdAb second
T1 construct: extracellular domain; also called human PD-L1 (ECD)-his; human PD-L1 protein; not shown: his tag
Description: To further determine the epitopes the two binding arms of the bi- or multi-specific antibodies bind, a competitive SPR binding assay was performed. Briefly, 1 μg/ml human PD-L1 (ECD)-his proteins (Cat #:10084-H08H, Sino Biological, CN) were coupled to a CM5 biosensor chip (Cat #:BR-1005-30, GE Life Sciences, USA). The un-reacted groups were then blocked with 1 M ethanolamine. The anti-PD-L1 antibodies, 3C2VH6VL5 and 56E5VH5VL4, of 5 μg/ml were respectively injected into the SPR running buffer (IBS-EP buffer, pH7.4, Cat #:BR-1006-69, GE Life Sciences, USA) at 30 μl/min. Then, a second anti-PD-L 1 antibody (i.e., the anti-PD-L1 nanobody) of 5 μg/ml was injected into the SPR running buffer at 30 μL/min. The binding affinity was calculated with the RUs of blank controls subtracted, and the association rate (kₐ) and dissociation rate (kd) were determined using the one-to-one Langmuir binding model.

[2] = target: T2, human CD40 on HEK293A/human CD40 cells (human, UniProt P25942 21-277); assay: FACS on HEK293A/human CD40 cells
T2 construct: also called HEK-Blue/CD40 cells
Description: (§1) The bispecific antibodies as prepared above were tested for their binding capability to cell surface human, monkey and mouse CD40 proteins by FACS, using the HEK293A cells prepared in Example 1 that stably expressed human, monkey or mouse CD40. Briefly, a 96-well plate was seeded with 10⁵ HEK293A cells in 50 μl PBS, and then added with 100 μl serially diluted anti-CD40 antibody 714VH2VL2 and the bispecific antibodies of the disclosure (starting concentration at 40 μg/ml). After incubation at 4° C. for 1 h, the plate was washed by PBST for 3 times. The plate was added with 1:500 diluted APC-goat anti-mouse IgG (Cat #:405308, BioLegen, USA), incubated at 4° for 1 h, washed with PBS for 3 times, and subjected to fluorescence measurement in a FACS machine (BD).
(§2) Following the protocols in Example 4 and Example 5, the bi- or multi-specific antibodies of the disclosure were tested for their binding capability to human PD-L1 and human CD40 proteins by FACS using the HEK293A cells prepared in Example 1 that stably expressed human PD-L1 or human CD40.

[3] = target: T2, human CD40 on HEK293A/human CD40 cells; assay: cell-based or functional assay
[4] = target: T3, human PD-L1 on HEK293A/human PD-L1 cells (human, UniProt Q9NZQ7 19-290); assay: FACS blocking assay on HEK293A/human PD-L1 cells; blocked ligand PD-1-Fc
Procedure, shortened: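 Cells preincubated with serially diluted antibody 1 h at 4° C, washed, then exposed to 200 μg/ml PD-1-Fc for 1 h at 4° C. Bound PD-1-Fc detected with PE-anti-human IgG and read by flow cytometry.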

[5] = target: T3, human PD-L1 on HEK293A/human PD-L1 cells; assay: FACS on HEK293A/human PD-L1 cells
Procedure, shortened: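 HEK293A cells stably expressing the target (10⁵ cells/well) incubated with serially diluted antibodies from 40 μg/ml, 1 h at 4 °C. After PBST washes, bound antibody detected with 1:500 APC-goat anti-mouse IgG for 1 h at 4 °C and read by flow cytometry.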

[6] = target: T2, human CD40 on HEK293A/human CD40 cells; assay: cell-based or functional assay; remark: listed apart in the source
[7] = target: T1, human PD-L1-his protein; assay: SPR (BIAcore 8K), human PD-L1-his coupled to CM5 chip, antibody injected
[8] = target: T2, human CD40 on HEK293A/human CD40 cells; assay: FACS on HEK293A/human CD40 cells; remark: listed apart in the source
Description: as §1, §2

[9] = target: T3, human PD-L1 on HEK293A/human PD-L1 cells; assay: FACS blocking assay on HEK293A/human PD-L1 cells; blocked ligand PD-1-Fc; remark: listed apart in the source
Description: (§3) The bispecific antibodies were tested for their blocking activity on PD-1-PD-L1 binding by FACS using the HEK293A cells stably expressing human PD-L1 molecules as prepared in Example 1. Briefly, a 96-well plate was seeded with 10⁵ HEK293A/human PD-L1 cells in 100 μl cell culture medium, and then added with 50 μl serially diluted anti-PD-L1 antibody 56E5VH5VL4 or MBS307-3 molecules. After incubation at 4° C. for 1 h. the plate was washed with PBST for 3 times, added with 100 μl 200 μg/ml PD-1-Fc fusion proteins (Cat #:10377-10211, Sino Biological, CN), incubated at 4° C. for 1 h, washed with PBST for 3 times, and added with 1:500 diluted PE-goat anti-human IgG (Cat #:PAI-86078, Thermofisher, USA). After incubation at 4° C. for 1 h, the plate was washed with PBST for 3 times and measured for fluorescence using a FACS machine (BD).
(§4) Following the protocol of Example 7, the bi- or multi-specific antibodies were tested for their capability to block PD-1-PD-L1 binding by FACS, using the HEK293A cells prepared in Example 1 that stably expressed human PD-L1 molecules.

[10] = target: T4, human CD40-his protein (human, UniProt P25942 21-193); assay: SPR (BIAcore 8K), human CD40-his coupled to CM5 chip, antibody injected
T4 construct: Bought protein; also called human CD40 protein; CD40 molecules; not shown: his tag

[11] = target: T3, human PD-L1 on HEK293A/human PD-L1 cells; assay: FACS blocking assay on HEK293A/human PD-L1 cells; blocked ligand PD-1-Fc; remark: listed apart in the source
Description: as §3, §4

T2 sequence (P25942 21-277 limits assumed): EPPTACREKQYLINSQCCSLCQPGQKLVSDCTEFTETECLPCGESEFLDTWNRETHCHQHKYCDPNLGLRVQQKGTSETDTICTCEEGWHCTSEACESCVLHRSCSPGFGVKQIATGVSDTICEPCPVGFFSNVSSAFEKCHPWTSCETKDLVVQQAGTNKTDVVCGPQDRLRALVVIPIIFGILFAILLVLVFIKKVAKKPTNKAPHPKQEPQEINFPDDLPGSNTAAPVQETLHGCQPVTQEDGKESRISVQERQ
T3 sequence (Q9NZQ7 19-290 limits assumed): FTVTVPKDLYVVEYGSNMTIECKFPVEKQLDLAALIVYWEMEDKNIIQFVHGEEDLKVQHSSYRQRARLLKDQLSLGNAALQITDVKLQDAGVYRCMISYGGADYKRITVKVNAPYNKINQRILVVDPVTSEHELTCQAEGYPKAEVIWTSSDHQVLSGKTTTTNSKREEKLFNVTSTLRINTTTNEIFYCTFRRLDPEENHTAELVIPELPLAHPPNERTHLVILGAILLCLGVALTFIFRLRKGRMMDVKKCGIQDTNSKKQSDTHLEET
T1 sequence (Q9NZQ7 19-238): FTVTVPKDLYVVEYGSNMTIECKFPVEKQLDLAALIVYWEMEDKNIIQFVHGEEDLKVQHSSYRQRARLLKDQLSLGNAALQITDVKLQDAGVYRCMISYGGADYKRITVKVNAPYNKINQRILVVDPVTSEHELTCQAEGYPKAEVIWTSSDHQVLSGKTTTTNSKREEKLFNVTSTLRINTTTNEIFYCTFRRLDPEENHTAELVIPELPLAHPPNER
T4 sequence (P25942 21-193 limits assumed): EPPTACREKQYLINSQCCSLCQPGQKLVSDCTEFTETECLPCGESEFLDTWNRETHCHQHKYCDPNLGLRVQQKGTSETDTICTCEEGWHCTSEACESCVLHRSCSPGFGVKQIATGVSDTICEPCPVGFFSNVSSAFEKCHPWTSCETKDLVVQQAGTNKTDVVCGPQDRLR

binding result [1]	EC50 (read off the curve) [2]	EC50 (read off the curve); HEK-Blue/CD40 reporter, OD630, plate coated with human PD-L1-his [3]	IC50 (read off the curve) [4]	EC50 (read off the curve) [5]	EC50 (read off the curve); HEK-Blue/CD40 reporter, OD630, plate coated with human PD-L1-his [6]	Kd [7]	EC50 (read off the curve) [8]	IC50 (read off the curve) [9]	Kd [10]	IC50 (read off the curve) [11]	Binder
binds											anti-PD-L1 nanobody (VHH, also called monospecific anti-PD-L1 nanobody) VHH: QVQLLESGGGLVQPGGSLRLSCAASGFAFSDYAMTWVRQAPGKGLEWVSTINSGGQSSSYLDSVKGRFTSSRDNSKNTLYLQMNSLRAEDTAVYYCAKGVYMPWKAPKGQGTLVTVSS
	~0.02 µg/mL	~0.01 µg/mL	~0.6 µg/mL	~0.2 µg/mL	~0.02 µg/mL	0.683 nM	~0.07 µg/mL	~0.2 µg/mL	2.9 nM	~0.2 µg/mL	MBS307-9 (bispecific antibody, human IgG1, kappa, L234A L235A, Asymmetric: knob chain with the 56E5VH5VL4 scFv, hole chain with the 3C2VH6VL5 scFv, linker 4 (short linker); also called MBS307-9-1 + MBS307-9-2) heavy 1: QVQLQESGPGLVKPSDTLSLTCAVSGYSITTNYYWNWIRQPPGKGLEWMGYIKYDGSNNYNPSLKNRITISVDTSKNQFSLKLSSVTAVDTAVYYCARLDYWGQGTLVTVSSASTKGPSVFPLAPSSKSTSGGTAALGCLVKDYFPEPVTVSWNSGALTSGVHTFPAVLQSSGLYSLSSVVTVPSSSLGTQTYICNVNHKPSNTKVDKKVEPKSCDKTHTCPPCPAPEAAGGPSVFLFPPKPKDTLMISRTPEVTCVVVDVSHEDPEVKFNWYVDGVEVHNAKTKPREEQYNSTYRVVSVLTVLHQDWLNGKEYKCKVSNKALPAPIEKTISKAKGQPREPQVYTLPPSREEMTKNQVSLWCLVKGFYPSDIAVEWESNGQPENNYKTTPPVLDSDGSFFLYSKLTVDKSRWQQGNVFSCSVMHEALHNHYTQKSLSLSPGGGGGQVQLQESGPGLVKPSQTLSLTCTVSGGSITSDYWNWIRQHPGNKLEYMGYISYTGSTYYNPSLKSRISITRDTSKNQFSLKLSSVTTADTAVYYCARYRDWDVRAMDYWGQGTTVTVSSGGGGSGGGGSGGGGSGGGGSDIVMTQSPDSLAVSLGEKVTMNCKSSQSLLISGNQKNFLTWYQQKPGQPPKLLIYWASTRESGVPDRFSGSGSGTDFTLTISSLQAEDEAVYYCQNDFGFPFTFGQGTKLTAK heavy 2: QVQLQESGPGLVKPSDTLSLTCAVSGYSITTNYYWNWIRQPPGKGLEWMGYIKYDGSNNYNPSLKNRITISVDTSKNQFSLKLSSVTAVDTAVYYCARLDYWGQGTLVTVSSASTKGPSVFPLAPSSKSTSGGTAALGCLVKDYFPEPVTVSWNSGALTSGVHTFPAVLQSSGLYSLSSVVTVPSSSLGTQTYICNVNHKPSNTKVDKKVEPKSCDKTHTCPPCPAPEAAGGPSVFLFPPKPKDTLMISRTPEVTCVVVDVSHEDPEVKFNWYVDGVEVHNAKTKPREEQYNSTYRVVSVLTVLHQDWLNGKEYKCKVSNKALPAPIEKTISKAKGQPREPQVYTLPPSREEMTKNQVSLSCAVKGFYPSDIAVEWESNGQPENNYKTTPPVLDSDGSFFLVSKLTVDKSRWQQGNVFSCSVMHEALHNHYTQKSLSLSPGGGGGQVQLVQSGAEVKKPGASVKVSCKASGYTFTDYHVNWVRQAPGQGLEWIGWIFPGSGRTFYTDKFKGRVTMTVDTSTSTVYMELSSLRSEDTAVYYCATDYGTSGYGLVYWGQGTTVTVSSGGGGSGGGGSGGGGSGGGGSDIQMTQSPSSLSASVGDRVTITCKASDRINNWLAWYQQKPGKAPKLLISGATSLETGVPSRFSGSGSGTDFTLTISSLQPEDEATYYCQQYWNIPFTFGQGTKLTAK light: DVVLTQSPLSLPVTLGQPASISCRSSQSLENSNGNTFLNWFQQRPGQSPRLLIYKVSNRFSGVPDRFSGSGSGTDFTLKISRVEAEDVGVYYCLQVTHVPFTFGQGTKLEIKRTVAAPSVFIFPPSDEQLKSGTASVVCLLNNFYPREAKVQWKVDNALQSGNSQESVTEQDSKDSTYSLSSTLTLSKADYEKHKVYACEVTHQGLSSPVTKSFNRGEC
